Reference: article PMC4918310

Target: untagged recombinant mouse TWEAK (mouse) (UniProt O54907)
Chain of UniProt O54907 (O54907 94-249): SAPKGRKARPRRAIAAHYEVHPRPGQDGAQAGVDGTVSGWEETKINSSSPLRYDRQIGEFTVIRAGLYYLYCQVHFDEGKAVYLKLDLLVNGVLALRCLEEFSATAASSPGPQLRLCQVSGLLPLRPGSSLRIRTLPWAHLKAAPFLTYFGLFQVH

## recombinant mouse sCD163 (receptor)
  TWEAK (200 ng ml^-1)-induced canonical and non-canonical NF-kB signalling in mouse endothelial cells (MDEC), immunoblotting, with increasing doses of recombinant mouse sCD163: 50
